Primed or numbered codes have the meaning given here. * marks the point of attachment. Dabcyl″ = label, CN(C)c1ccc(/N=N/c2ccc(C(=O)*)cc2)cc1
Key:
[1] = tested on: bacterial proteases; test: HE1 specificity versus bacterial proteases; assay type: biochemical
Protocol: (§1) Specificity was tested with 20 μl of a 1:10 dilution of the Affigel beads reacted with 100 μl media control or overnight grown culture of Pseudomonas aeruginosa, Streplococcus pyogenes, Escherichia coli, and Enterococcus faecalis in 200 μl total volume, as described above. The samples were spun down and a 20 μl aliquot measured in 500 μl total volume ABTS over 5 minutes.

[2] = tested on: Pseudomonas aeruginosa; test: HE1-Affigel bead HRP release specificity test with overnight grown culture; assay type: biochemical; details: 100 μl overnight grown culture; ABTS over 5 minutes
Protocol: as §1

[3] = biological target: T1, elastase (Homo sapiens, UniProt P08246); test: HE1-Affigel bead HRP release spin through assay with elastase; assay type: biochemical; details: 5 μg/ml elastase, 5 minutes; ABTS substrate over 5 minutes
T1 sequence (P08246 30-267): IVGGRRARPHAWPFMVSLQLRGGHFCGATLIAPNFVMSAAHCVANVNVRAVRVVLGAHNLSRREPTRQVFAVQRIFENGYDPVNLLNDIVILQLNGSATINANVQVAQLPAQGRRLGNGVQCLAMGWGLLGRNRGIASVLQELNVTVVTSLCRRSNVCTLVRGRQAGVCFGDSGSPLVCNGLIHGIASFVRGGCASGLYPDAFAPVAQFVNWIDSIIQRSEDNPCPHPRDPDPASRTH
Protocol: The peptide was tested for activity by conjugating one end to Affigel 10 beads (BioRad) and the other end to HRP reporter enzyme. The sequence of the HE1 peptide used for this assay was H2N-PFPQANYITYC-OH) (SEQ ID NO: 9). The activity was measured by detecting the release of HRP from the beads in a spin through assay. Testing was performed with 20 μl of a 1:10 dilution of HE1-Affigel beads reacted with 5 μg/ml elastase in 200 μl total volume for 5 minutes.

[4] = biological target: T2, human neutrophil elastase (Homo sapiens, UniProt P08246); test: FRET protease assay of bacterial peptide substrates with human neutrophil elastase (cross-reactivity); assay type: biochemical
T2 sequence (P08246 30-267): T1 sequence (P08246 30-267)
Protocol: Based on the concentration of elastase from human wound fluid, it was determined whether this amount of elastase (0-50 μg/ml) would cause false positives in a protease assay using fluorescence resonance energy transfer (FRET) with peptides that are specific substrates for bacteria (FIGS. 3A-3C). Broad spectrum pathogen peptides such as CPI2 (peptide sequence EGAMFLEAIPMSIPK (referred to herein as SEQ ID NO: 3)) (that reacts with Staphylococcus aureus, Proteus mirabilis, Pseudomonas aeruginosa, Enterococcus faecalis, and Streptococcus pyogenes) were studied. Specific peptides for Pseudomonas aeruginosa (E8 (peptide sequence […] (referred to herein as SEQ ID NO: 4)) and G6 (peptide sequence EAAHQSALQSAK (referred to herein as SEQ ID NO: 5))), Staphylococcus aureus (SAP2 (peptide sequence […] (referred to herein as SEQ ID NO: 6)), Escherichia coli (T2 (peptide sequence EVSRRRRRGGK (referred to herein as SEQ ID NO: 7)) and T3 (peptide sequence KKASEVSRRRRRGGK (referred to herein as SEQ ID NO: 8)) were also studied. The […] were tested with three concentrations of human neutrophil elastase. The peptide substrates were tested in the FRET format with the fluorescent dye Edans attached to one end of the peptide and the quencher Dabcyl attached to the other end of the peptide. In this FRET assay format, amino acids are added to the terminals of the peptides to introduce the FRET assay dye. For example, an “E” is added to the N terminal and a “K” is added to the C terminal. For example, the “E” can be (E-EDANS) and the “K” can be (K-Dabcyl). Cleavage of the peptide substrate by human neutrophil elastase will produce a fluorescent signal.

[5] = biological target: T3, papain (Carica papaya, UniProt P00784); test: PAIN1 FRET assay with papain-containing ointment ACCUZYME; assay type: biochemical; details: 10 μl of 120 mg/ml ACCUZYME, over one hour
T3 construct: purchased DPT Laboratories ACCUZYME
T3 sequence (P00784 134-345): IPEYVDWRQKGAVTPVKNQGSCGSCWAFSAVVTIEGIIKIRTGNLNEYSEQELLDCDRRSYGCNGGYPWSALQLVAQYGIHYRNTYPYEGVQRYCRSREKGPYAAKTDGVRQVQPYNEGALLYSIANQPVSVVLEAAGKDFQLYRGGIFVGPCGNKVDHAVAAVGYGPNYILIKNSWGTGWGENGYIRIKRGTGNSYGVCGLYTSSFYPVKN
Protocol: (§2) PAIN1 was designed from a high throughput screen. The peptide was tested in the FRET format with the fluorescent dye Edans attached to one end of the peptide and the quencher Dabcyl attached to the other end of the peptide. The sequence of the PAIN1 peptide used for this assay was NH2-E(Edans) PMPPLCTSMK(Dabcyl)-COOH (SEQ ID NO: 10). Cleavage of the peptide substrate by papain will produce a fluorescent signal. The peptide was tested using 5 μl of a 5 mg/ml solution with 10 μl of overnight grown bacterial culture or with 10 μl of 120 mg/ml ACCUZYME®, a papain-containing debriding ointment (DPT Laboratories), in 100 μl total volume. The bacteria cultures tested were Pseudomonas aeruginosa (PA14), Streptococcus pyogenes (grown in BHI and TSB media), E. coli, Enterococcus faecalis, and Serratia marcesens. The relative fluorescence is shown over one hour. […] In particular, the bacteria that appear to cross-react the most with PAIN1 were Pseudomonas aeruginosa and Streptococcus pyogenes.

[6] = tested on: Streptococcus pyogenes; test: PAIN1 FRET assay with overnight grown bacterial culture; assay type: biochemical; details: 10 μl overnight grown culture, over one hour
Protocol: as §2

[7] = tested on: Pseudomonas aeruginosa (PA14); test: as above; assay type: biochemical; details: 10 μl overnight grown culture, over one hour
Protocol: as §2

[8] = biological target: T4, PAIN1 peptide (NH2-E(Edans) PMPPLCTSMK(Dabcyl)-COOH)
T4 chain: PMPPLCTSMK

[9] = biological target: T5, T2 (peptide sequence EVSRRRRRGGK)
T5 chain: EVSRRRRRGGK

[10] = biological target: T6, CPI2 (peptide sequence EGAMFLEAIPMSIPK)
T6 chain: EGAMFLEAIPMSIPK

[11] = biological target: T7, E8 (peptide sequence EQADALHDQASALK)
T7 chain: EQADALHDQASALK

[12] = biological target: T8, SAP2 (peptide sequence ETKVEENEAIQK)
T8 chain: ETKVEENEAIQK

[13] = biological target: T9, G6 (peptide sequence EAAHQSALQSAK)
T9 chain: EAAHQSALQSAK

[14] = biological target: T10, T3 (peptide sequence KKASEVSRRRRRGGK)
T10 chain: KKASEVSRRRRRGGK

H2N-PFPQANYITYC-OH (H-PFPQANYITYC-OH) [HE1]
cross-reaction with bacterial proteases [1]: not cross react | HRP release signal at 405 nm [2]: very minor increase | HRP release signal at 405 nm [3]: clear signal

EGAMFLEAIPMSIPK (CPI2-related peptide)
cross-reactivity with elastase (fluorescent signal) ([4]; 50 μg/ml of elastase, FIG. 3C): cross-reacted | cross-reactivity with elastase (fluorescent signal) ([4]; Five μg/ml of elastase, FIG. 3B): small response

EQADALHDQASALK (Pseudomonas aeruginosa E8-related peptide)
cross-reactivity with elastase (fluorescent signal) ([4]; 50 μg/ml of elastase, FIG. 3C): cross-reacted

NH2-E(Edans) PMPPLCTSMK(Dabcyl)-COOH ({E(Edans)}-PMPPLCTSMK(Dabcyl″)-OH) [PAIN1]
relative fluorescence response [5]: high response | relative fluorescence response [6]: lower but significant responses | relative fluorescence response [7]: lower but significant responses

B1: papain (in ACCUZYME, a papain-containing debriding ointment, DPT Laboratories) (protein)
chain: T3 sequence (P00784 134-345)
FRET peptide cleavage (relative fluorescence over one hour), 10 ul of 120 mg/ml ACCUZYME [8]: A high response was seen with papain ointment

B2: human neutrophil elastase (protein)
chain: IVGGRRARPHAWPFMVSLQLRGGHFCGATLIAPNFVMSAAHCVANVNVRAVRVVLGAHNLSRREPTRQVFAVQRIFENGYDPVNLLNDIVILQLNGSATINANVQVAQLPAQGRRLGNGVQCLAMGWGLLGRNRGIASVLQELNVTVVTSLCRRSNVCTLVRGRQAGVCFGDSGSPLVCNGLIHGIASFVRGGCASGLYPDAFAPVAQFVNWIDSIIQ
FRET peptide cleavage (fluorescent signal), 500 ng/ml elastase [9]: no signal on any of the peptides when tested with 500 ng/ml of elastase | FRET peptide cleavage (fluorescent signal), 500 ng/ml elastase [10]: no signal on any of the peptides when tested with 500 ng/ml of elastase | FRET peptide cleavage (fluorescent signal), 5 ug/ml elastase [10]: Five µg/ml of elastase cross-reacted with the broad spectrum peptide CPI2 (small response) | FRET peptide cleavage (fluorescent signal), 50 ug/ml elastase [10]: 50 µg/ml of elastase cross-reacted with both peptides CPI2 and E8 | FRET peptide cleavage (fluorescent signal), 500 ng/ml elastase [11]: no signal on any of the peptides when tested with 500 ng/ml of elastase | FRET peptide cleavage (fluorescent signal), 50 ug/ml elastase [11]: 50 µg/ml of elastase cross-reacted with both peptides CPI2 and E8 | FRET peptide cleavage (fluorescent signal), 500 ng/ml elastase [12]: no signal on any of the peptides when tested with 500 ng/ml of elastase | FRET peptide cleavage (fluorescent signal), 500 ng/ml elastase [13]: no signal on any of the peptides when tested with 500 ng/ml of elastase | FRET peptide cleavage (fluorescent signal), 500 ng/ml elastase [14]: no signal on any of the peptides when tested with 500 ng/ml of elastase
